Broadly, the EC50 is the concentration giving half of the maximal effect. A lower EC50 goes with greater potency.

Several values for one entry are separate records, joined by “and”; a condition that tells them apart may be missing. Identical values can stand only once. Like-named read-outs stand apart in the source and are kept apart here.

Assay [1] addresses T1, F protein of RS Long strain virus (native form, on virus and infected VERO cells) (Respiratory Syncytial Virus, UniProt P12568 26-574). Description: cell-based or functional assay.
Assay [2] deals with T1, F protein of RS Long strain virus …. Nature of the assay: cell-based or functional assay. This is another data set of the same source.
The target is the same in assay [3]. Description: ELISA on methanol-fixed VERO cells infected with RS Long virus, biotinylated mAb 19B, HRP-streptavidin.
Assay [4] has the same target. Description: cell-based or functional assay. The source holds these as a separate data set.

T1 sequence (P12568 26-574): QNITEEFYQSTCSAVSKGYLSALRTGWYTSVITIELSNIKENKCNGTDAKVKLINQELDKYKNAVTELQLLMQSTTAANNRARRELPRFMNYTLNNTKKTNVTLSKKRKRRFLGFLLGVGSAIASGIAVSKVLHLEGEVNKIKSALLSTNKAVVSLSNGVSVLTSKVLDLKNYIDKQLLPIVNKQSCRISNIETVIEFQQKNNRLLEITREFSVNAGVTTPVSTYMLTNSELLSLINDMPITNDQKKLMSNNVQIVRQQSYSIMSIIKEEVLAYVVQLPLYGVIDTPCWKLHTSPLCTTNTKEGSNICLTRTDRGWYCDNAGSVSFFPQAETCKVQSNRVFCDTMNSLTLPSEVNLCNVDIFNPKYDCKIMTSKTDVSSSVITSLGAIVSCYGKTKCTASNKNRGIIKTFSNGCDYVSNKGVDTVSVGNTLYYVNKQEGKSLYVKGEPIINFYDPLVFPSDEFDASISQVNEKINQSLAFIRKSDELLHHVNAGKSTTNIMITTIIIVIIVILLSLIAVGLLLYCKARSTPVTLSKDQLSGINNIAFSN

B1: Fab19 (Fab)
VH: EVQLLEVESGGGLRPGGSLRLSCAASGTTLSGYTMHWVRQAPGKGLEWVSSITGGSNFINYSDSVKGRFTISRDNAKNSLYLQMNSLTAEDTAVYYCATAPIAPPYFDHWGQGTLVTVSS
light: ELTQSPSSLSASVGDRVTITCRATQSVSNFLNWYQQKPGEAPTLLIYDASTSQSGVPSRFSGSGSGMDFSLTISSLQPEDLAMYYCQASINTPLFGGGTRIDMRR
Turning to B1, in assay [1], the “Fusion-Inhibition EC50” value was 0.22 ug/ml and 4.4 nM; the “Neutralization EC50” value amounted to 0.34 µg/mL.

B2: mAb 19A (antibody, human IgG1)
VH: EVQLLEVESGGGLRPGGSLRLSCAASGTTLSGYTMHWVRQAPGKGLEWVSSITGGSNFINYSDSVKGRFTISRDNAKNSLYLQMNSLTAEDTAVYYCATAPIAPPYFDHWGQGTLVTVSS
light: ELTQSPSSLSASVGDRVTITCRATQSVSNFLNWYQQKPGEAPTLLIYDASTSQSGVPSRFSGSGSGMDFSLTISSLQPEDLAMYYCQASINTPLFGGGTRIDMRR
For B2, in assay [1], the “Fusion-Inhibition EC50” value is 18.9 nM and 2.8 ug/ml; the “Neutralization EC50” value is 2.2 µg/mL.

B3: Fab19A (Fab)
VH: EVQLLEVESGGGLRPGGSLRLSCAASGTTLSGYTMHWVRQAPGKGLEWVSSITGGSNFINYSDSVKGRFTISRDNAKNSLYLQMNSLTAEDTAVYYCATAPIAPPYFDHWGQGTLVTVSS
light: ELTQSPSSLSASVGDRVTITCRATQSVSNFLNWYQQKPGEAPTLLIYDASTSQSGVPSRFSGSGSGMDFSLTISSLQPEDLAMYYCQASINTPLFGGGTRIDMRR
For the molecule B3, the “Fusion-Inhibition EC50” value in assay [1] was 0.16 ug/ml and 3 nM.

B4: mAb 19B (antibody, human IgG1)
VH: QVQLVVESGGGLRPGGSLRLSCAASGTTLSGYTMHWVRQAPGKGLEWVSSITGGSNFINYSDSVKGRFTISRDNAKNSLYLQMNSLTAEDTAVYYCATAPIAPPYFDHWGQGTLVTVSS
light: DIQMTQSPSSLSASVGDRVTITCRATQSVSNFLNWYQQKPGEAPTLLIYDASTSQSGVPSRFSGSGSGMDFSLTISSLQPEDLAMYYCQASINTPLFGGGTRIDMRR
modifications: N-linked carbohydrate at Asn59 in part of the molecules (glycovariant)
notes: Human IgG1, kappa; also called Hu19B; version B
As to B4, the “Fusion-Inhibition Titer EC50” value in assay [2] amounted to 2.3 µg/mL; in assay [4] it was 2.5 µg/mL. The “Fusion-Inhibition EC50” value in assay [1] is 2.3 ug/ml and 15.3 nM. In assay [1], the “Neutralization EC50” value amounted to 1.5 µg/mL. For the same molecule, the EC50 in assay [3] stood at 0.034 µg/mL.

B5: Fab19B Fraction C (99% glycovariant) (Fab)
VH: QVQLVVESGGGLRPGGSLRLSCAASGTTLSGYTMHWVRQAPGKGLEWVSSITGGSNFINYSDSVKGRFTISRDNAKNSLYLQMNSLTAEDTAVYYCATAPIAPPYFDHWGQGTLVTVSS
light: DIQMNFLNWYQQKPGEAPTLLIYDASTSQSGVPSRFSGSGSGMDFSLTISSLQPEDLAMYYCQASINTPLFGGGTRIDMRR
modifications: N-linked carbohydrate at Asn59 in 99% of the preparation
B5: the “Fusion-Inhibition Titer EC50” value in assay [4] amounted to 3.7 µg/mL.

B6: Fab19B Fraction A (1% glycovariant) (Fab)
VH: QVQLVVESGGGLRPGGSLRLSCAASGTTLSGYTMHWVRQAPGKGLEWVSSITGGSNFINYSDSVKGRFTISRDNAKNSLYLQMNSLTAEDTAVYYCATAPIAPPYFDHWGQGTLVTVSS
light: DIQMNFLNWYQQKPGEAPTLLIYDASTSQSGVPSRFSGSGSGMDFSLTISSLQPEDLAMYYCQASINTPLFGGGTRIDMRR
modifications: N-linked carbohydrate at Asn59 in 1% of the preparation
For the molecule B6, the “Fusion-Inhibition Titer EC50” value in assay [4] worked out at 0.89 µg/mL.

B7: mAb 19D (antibody, human IgG1)
VH: QVQLVVESGGGLRPGGSLRLSCAASGTTLSGYTMHWVRQAPGKGLEWVSSITGGSNFIQYSDSVKGRFTISRDNAKNSLYLQMNSLTAEDTAVYYCATAPIAPPYFDHWGQGTLVTVSS
light: not shown
Turning to B7, in assay [1], the “Fusion-Inhibition EC50” value is 2.6 ug/ml and 17.3 nM.

B8: Fab19B Fraction B (94% glycovariant) (Fab)
VH: QVQLVVESGGGLRPGGSLRLSCAASGTTLSGYTMHWVRQAPGKGLEWVSSITGGSNFINYSDSVKGRFTISRDNAKNSLYLQMNSLTAEDTAVYYCATAPIAPPYFDHWGQGTLVTVSS
light: DIQMNFLNWYQQKPGEAPTLLIYDASTSQSGVPSRFSGSGSGMDFSLTISSLQPEDLAMYYCQASINTPLFGGGTRIDMRR
modifications: N-linked carbohydrate at Asn59 in 94% of the preparation
Take B8: in assay [4], the “Fusion-Inhibition Titer EC50” value is 1.5 µg/mL.

B9: Fab19B (Fab)
VH: QVQLVVESGGGLRPGGSLRLSCAASGTTLSGYTMHWVRQAPGKGLEWVSSITGGSNFINYSDSVKGRFTISRDNAKNSLYLQMNSLTAEDTAVYYCATAPIAPPYFDHWGQGTLVTVSS
light: DIQMNFLNWYQQKPGEAPTLLIYDASTSQSGVPSRFSGSGSGMDFSLTISSLQPEDLAMYYCQASINTPLFGGGTRIDMRR
modifications: N-linked carbohydrate at Asn59 in <10% of the preparation (Table 4)
Turning to B9, the “Fusion-Inhibition EC50” value in assay [1] was 0.12 ug/ml and 2.4 nM. In assay [4], the “Fusion-Inhibition Titer EC50” value stood at 0.12 µg/mL.

B10: mAb 19B Fraction A (<5% glycovariant) (antibody, human IgG1)
VH: QVQLVVESGGGLRPGGSLRLSCAASGTTLSGYTMHWVRQAPGKGLEWVSSITGGSNFINYSDSVKGRFTISRDNAKNSLYLQMNSLTAEDTAVYYCATAPIAPPYFDHWGQGTLVTVSS
light: DIQMNFLNWYQQKPGEAPTLLIYDASTSQSGVPSRFSGSGSGMDFSLTISSLQPEDLAMYYCQASINTPLFGGGTRIDMRR
modifications: N-linked carbohydrate at Asn59 in <5% of the preparation
Turning to B10, in assay [4], the “Fusion-Inhibition Titer EC50” value stood at 1.8 µg/mL.

B11: mAb 19C (antibody, human IgG1)
VH: QVQLVVESGGGLRPGGSLRLSCAASGTTLSGYTMHWVRQAPGKGLEWVSSITGGSNFINYADSVKGRFTISRDNAKNSLYLQMNSLTAEDTAVYYCATAPIAPPYFDHWGQGTLVTVSS
light: not shown
With B11, the “Fusion-Inhibition EC50” value in assay [1] is 2.4 ug/ml and 16 nM.

B12: mAb 19B Fraction B (40% glycovariant) (antibody, human IgG1)
VH: QVQLVVESGGGLRPGGSLRLSCAASGTTLSGYTMHWVRQAPGKGLEWVSSITGGSNFINYSDSVKGRFTISRDNAKNSLYLQMNSLTAEDTAVYYCATAPIAPPYFDHWGQGTLVTVSS
light: DIQMNFLNWYQQKPGEAPTLLIYDASTSQSGVPSRFSGSGSGMDFSLTISSLQPEDLAMYYCQASINTPLFGGGTRIDMRR
modifications: N-linked carbohydrate at Asn59 in 40% of the preparation
Take B12: the “Fusion-Inhibition Titer EC50” value in assay [4] amounted to 3.8 µg/mL.

Source of the values: patent US20050019758A1 (GlaxoSmithKline, published 2005).
